These are literature values, as cited in paper PMC8667759.

In one data set the target is Cav3 (UniProt O43497).
For the next data set, the target named is Piezo1 (UniProt E2JF22).
Chain of UniProt E2JF22 (E2JF22 whole entry): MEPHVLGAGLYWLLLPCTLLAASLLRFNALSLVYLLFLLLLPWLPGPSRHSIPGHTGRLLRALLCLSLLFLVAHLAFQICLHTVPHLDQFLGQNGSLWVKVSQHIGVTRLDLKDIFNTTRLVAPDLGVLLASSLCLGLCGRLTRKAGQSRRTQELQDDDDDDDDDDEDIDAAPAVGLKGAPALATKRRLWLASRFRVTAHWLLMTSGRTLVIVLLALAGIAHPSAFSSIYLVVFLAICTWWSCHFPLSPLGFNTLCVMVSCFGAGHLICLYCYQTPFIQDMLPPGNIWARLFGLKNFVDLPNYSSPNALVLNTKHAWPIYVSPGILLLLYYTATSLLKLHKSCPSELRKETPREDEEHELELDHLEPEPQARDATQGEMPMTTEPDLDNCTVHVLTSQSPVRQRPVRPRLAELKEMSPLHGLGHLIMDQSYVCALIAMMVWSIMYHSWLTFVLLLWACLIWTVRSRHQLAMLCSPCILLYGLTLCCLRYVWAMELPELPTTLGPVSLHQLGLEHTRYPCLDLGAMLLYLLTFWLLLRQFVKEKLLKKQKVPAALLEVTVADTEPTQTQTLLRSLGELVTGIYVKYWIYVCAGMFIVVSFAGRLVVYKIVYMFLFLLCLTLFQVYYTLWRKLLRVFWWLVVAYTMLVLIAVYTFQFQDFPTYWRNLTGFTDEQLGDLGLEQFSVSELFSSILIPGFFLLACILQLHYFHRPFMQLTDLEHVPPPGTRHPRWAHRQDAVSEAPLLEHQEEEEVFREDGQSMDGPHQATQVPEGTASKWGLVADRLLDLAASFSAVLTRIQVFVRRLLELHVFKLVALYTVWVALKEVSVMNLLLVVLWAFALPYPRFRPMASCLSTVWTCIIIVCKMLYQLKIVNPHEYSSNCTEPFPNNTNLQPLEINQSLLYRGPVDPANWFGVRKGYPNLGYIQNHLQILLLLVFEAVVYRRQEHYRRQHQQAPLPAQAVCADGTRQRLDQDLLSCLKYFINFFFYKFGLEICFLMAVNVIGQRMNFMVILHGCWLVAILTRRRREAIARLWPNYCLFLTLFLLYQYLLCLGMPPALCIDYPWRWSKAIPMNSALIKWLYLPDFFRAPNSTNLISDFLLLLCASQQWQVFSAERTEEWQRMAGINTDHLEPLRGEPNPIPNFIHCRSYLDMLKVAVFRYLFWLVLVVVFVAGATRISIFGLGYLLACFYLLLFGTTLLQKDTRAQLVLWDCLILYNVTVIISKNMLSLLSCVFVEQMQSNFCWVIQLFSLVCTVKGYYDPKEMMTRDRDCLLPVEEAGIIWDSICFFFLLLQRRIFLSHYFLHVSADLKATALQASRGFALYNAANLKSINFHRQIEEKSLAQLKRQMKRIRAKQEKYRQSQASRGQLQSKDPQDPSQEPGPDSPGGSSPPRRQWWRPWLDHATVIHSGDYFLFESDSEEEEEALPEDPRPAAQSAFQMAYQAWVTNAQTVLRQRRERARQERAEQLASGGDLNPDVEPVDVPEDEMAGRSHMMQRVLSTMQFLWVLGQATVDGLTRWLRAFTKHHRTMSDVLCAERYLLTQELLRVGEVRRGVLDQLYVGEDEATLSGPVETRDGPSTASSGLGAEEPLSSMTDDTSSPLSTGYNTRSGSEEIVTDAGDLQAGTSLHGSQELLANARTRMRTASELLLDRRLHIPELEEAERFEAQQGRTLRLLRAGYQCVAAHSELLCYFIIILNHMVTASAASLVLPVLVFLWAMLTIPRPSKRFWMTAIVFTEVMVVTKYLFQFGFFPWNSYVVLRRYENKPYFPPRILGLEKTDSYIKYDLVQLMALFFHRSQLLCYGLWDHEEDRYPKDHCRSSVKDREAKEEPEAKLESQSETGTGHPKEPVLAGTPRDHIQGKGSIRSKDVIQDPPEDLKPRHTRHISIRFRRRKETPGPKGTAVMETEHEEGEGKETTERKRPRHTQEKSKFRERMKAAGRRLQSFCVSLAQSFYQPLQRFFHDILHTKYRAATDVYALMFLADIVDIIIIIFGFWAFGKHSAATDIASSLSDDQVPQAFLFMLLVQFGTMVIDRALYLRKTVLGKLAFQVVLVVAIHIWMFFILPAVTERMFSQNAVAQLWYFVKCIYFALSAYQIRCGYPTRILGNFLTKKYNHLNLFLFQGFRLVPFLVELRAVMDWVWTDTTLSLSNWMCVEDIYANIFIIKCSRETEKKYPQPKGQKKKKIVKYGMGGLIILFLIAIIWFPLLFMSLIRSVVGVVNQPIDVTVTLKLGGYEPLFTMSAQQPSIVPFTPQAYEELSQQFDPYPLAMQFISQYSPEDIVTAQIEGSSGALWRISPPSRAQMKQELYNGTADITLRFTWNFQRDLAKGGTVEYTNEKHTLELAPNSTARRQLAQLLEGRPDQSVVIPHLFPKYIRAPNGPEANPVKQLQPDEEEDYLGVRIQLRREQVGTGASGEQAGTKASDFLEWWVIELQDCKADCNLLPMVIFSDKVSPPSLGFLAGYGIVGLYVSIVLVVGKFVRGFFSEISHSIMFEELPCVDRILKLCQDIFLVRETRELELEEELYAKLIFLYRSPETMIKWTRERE

Chain of UniProt O43497 (O43497 whole entry): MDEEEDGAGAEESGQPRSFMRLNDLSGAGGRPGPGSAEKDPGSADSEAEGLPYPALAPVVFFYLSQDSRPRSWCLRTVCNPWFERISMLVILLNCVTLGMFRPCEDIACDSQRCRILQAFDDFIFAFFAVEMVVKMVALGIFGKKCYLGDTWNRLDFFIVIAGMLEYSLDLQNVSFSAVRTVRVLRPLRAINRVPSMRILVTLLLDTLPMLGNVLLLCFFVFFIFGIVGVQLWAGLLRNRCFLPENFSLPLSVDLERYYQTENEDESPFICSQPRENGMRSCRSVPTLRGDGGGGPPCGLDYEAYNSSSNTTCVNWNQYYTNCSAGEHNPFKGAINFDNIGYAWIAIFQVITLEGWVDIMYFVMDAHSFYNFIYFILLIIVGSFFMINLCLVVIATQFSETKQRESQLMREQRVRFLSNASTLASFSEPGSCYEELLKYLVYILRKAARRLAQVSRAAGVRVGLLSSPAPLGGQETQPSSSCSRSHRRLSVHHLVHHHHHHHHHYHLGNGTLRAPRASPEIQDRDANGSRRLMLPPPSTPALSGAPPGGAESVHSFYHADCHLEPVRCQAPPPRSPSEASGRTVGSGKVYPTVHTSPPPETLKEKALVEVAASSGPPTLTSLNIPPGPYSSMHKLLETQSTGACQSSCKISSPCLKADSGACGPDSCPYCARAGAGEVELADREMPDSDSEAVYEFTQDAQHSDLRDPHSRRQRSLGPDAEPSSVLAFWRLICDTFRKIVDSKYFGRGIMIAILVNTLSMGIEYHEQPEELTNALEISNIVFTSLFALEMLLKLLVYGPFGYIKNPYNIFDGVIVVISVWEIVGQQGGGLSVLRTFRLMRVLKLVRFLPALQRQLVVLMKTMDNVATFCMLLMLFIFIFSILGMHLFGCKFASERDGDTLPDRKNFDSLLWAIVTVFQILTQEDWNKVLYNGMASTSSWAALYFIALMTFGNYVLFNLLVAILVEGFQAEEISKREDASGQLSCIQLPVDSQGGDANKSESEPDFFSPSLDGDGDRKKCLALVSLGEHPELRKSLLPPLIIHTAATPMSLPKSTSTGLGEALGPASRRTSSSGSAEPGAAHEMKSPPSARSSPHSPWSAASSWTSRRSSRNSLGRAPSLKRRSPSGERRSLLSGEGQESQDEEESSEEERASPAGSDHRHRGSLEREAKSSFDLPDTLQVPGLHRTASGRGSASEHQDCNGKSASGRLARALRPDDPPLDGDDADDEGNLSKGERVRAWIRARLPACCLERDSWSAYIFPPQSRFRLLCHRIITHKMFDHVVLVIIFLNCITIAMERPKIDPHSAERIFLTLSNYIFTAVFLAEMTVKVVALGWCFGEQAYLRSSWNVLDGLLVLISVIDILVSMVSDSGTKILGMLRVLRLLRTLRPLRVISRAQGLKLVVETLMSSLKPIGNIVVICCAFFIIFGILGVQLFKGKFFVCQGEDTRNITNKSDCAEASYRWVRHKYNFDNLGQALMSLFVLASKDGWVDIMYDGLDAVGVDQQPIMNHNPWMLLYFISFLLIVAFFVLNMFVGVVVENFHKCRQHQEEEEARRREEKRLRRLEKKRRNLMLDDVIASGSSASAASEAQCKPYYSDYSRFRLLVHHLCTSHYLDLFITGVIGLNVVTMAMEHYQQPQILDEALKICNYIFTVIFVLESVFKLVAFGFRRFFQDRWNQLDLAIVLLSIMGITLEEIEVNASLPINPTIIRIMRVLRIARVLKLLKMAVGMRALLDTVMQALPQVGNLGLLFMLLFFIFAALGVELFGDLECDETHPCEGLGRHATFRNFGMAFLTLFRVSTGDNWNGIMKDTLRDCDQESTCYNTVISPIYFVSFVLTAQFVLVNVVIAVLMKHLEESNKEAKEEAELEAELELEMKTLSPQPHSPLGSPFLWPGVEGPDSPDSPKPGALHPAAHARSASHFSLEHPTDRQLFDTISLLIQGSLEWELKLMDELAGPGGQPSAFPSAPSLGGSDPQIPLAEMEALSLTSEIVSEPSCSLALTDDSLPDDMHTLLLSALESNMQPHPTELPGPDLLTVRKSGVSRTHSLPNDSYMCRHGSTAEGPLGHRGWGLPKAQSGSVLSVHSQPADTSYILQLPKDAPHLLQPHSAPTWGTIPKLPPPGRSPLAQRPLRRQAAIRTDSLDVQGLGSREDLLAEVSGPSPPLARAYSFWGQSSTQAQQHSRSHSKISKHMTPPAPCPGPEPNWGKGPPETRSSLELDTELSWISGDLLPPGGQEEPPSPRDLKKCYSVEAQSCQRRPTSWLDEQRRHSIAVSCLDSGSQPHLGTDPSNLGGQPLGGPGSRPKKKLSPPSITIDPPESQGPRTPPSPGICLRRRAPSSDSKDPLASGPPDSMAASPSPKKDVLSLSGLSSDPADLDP

The Kd is the free concentration of one partner at which half of the binding sites on the other are occupied at equilibrium, for simple one-to-one binding. As to Kurtoxin (from UniProt P58910), the equilibrium dissociation constant (Kd) with Cav3 is 15 nM. Turning to GsMTx4 (from UniProt Q7YT39), the Kd with Piezo1 is 155 nM.
